{"source": "patent US20240100187A1", "about": "(AC IMMUNE, published 2024)", "binders": {"B1": {"name": "MAB1 IgG (anti-TDP-43 antibody, chimeric human IgG1) (antibody, V domains shown)", "VH": "EVQLQQSGPELVKPGASVKISCKTSGFTFTEYSMHWVKQSHGKSLEWIGGINPNNGGTSYNQKFKGKATLTVDKSSSTAYMELRSLTSEDSAVYYCARESWGQGTTLTVSS", "VL": "not shown", "notes": "Chimeric human IgG1 anti-TDP-43; The IRES and 2 promoter constructs give the same correctly matured protein, whether transfected (CHO) or AAV-vectorized, so they are treated as one molecule; also called MAB1 hIgG1; IgG standard"}}, "key": {"[1]": {"target": "T1, TDP-43 C-terminal peptide called TP-62", "T1 construct": "also called TP-62 peptide", "experiment": "BLI (Octet), TP-62 on streptavidin biosensors; range told for the IgG constructs, transfected or vectorized"}, "[2]": {"target": "T1, TDP-43 C-terminal peptide called TP-62", "experiment": "BLI (Octet), TP-62 peptide loaded at 500 nM on streptavidin biosensors, antibody from 100 nM in 2-fold serial dilutions, 900 s association, 600 s dissociation [cont.]"}, "[3]": {"target": "T1, TDP-43 C-terminal peptide called TP-62", "experiment": "BLI (Octet), TP-62 on streptavidin biosensors, 2-fold dilutions from 100 nM, 30 C"}, "[4]": {"target": "T2, human full length TDP-43 protein (human, UniProt Q13148 1-414)", "T2 construct": "mature; Coated at 1 ug/ml on ELISA plates; also called hTDP-43 full length (FL) protein; human FL TDP-43", "T2 sequence (Q13148 whole entry)": "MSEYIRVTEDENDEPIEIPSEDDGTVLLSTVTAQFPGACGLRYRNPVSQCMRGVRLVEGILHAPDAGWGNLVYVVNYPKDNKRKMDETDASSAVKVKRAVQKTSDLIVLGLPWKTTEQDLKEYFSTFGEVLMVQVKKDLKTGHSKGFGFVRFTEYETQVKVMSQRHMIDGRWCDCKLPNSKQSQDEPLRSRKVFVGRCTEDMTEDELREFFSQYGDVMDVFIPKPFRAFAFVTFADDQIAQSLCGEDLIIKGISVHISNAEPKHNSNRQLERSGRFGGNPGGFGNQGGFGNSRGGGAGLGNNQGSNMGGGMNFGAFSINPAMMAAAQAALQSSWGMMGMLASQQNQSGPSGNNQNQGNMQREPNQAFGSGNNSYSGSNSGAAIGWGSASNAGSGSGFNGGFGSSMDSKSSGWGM", "experiment": "indirect ELISA on coated human full length TDP-43, anti-human secondary antibody, absorbance A450nm; apical supernatants of hCMEC/D3 in the OrganoPlate BBB model 3 days after transduction, and purified control antibodies", "method": "Supernatants from both top lane (apical) and bottom lane (basolateral) were collected 3 days post-transduction and antibody concentrations in the apical and basolateral compartments were determined by binding to human full-length (FL) TDP-43 using an indirect ELISA. In brief, ELISA plate coating with 1 μg/ml human FL TDP-43 was performed overnight in carbonate buffer at 4° C. Plates were washed with 0.05% Tween-20/PBS and then blocked with 1% bovine serum albumin (BSA) in 0.05% Tween-20/PBS for 1 hour at 37° C. Collected antibody-containing supernatants were then added to the plate and incubated for 2 hours at 37° C. after which the plates were washed. […] After the final wash, plates were incubated with pNPP solution and read at 405 nm after 1h using a plate reader (BioTek). […] Supernatants from both apical and basolateral sides were collected 3 days post-transduction and antibody concentrations in the apical and basolateral compartments were determined by binding to human FL TDP-43 using an indirect ELISA as described previously."}}, "note": "Values joined by “and” are separate entries in the source; they are usually repeats but may differ in a detail not shown here. Identical values can stand only once."}
{"binder": "B1", "values": [{"measurement": "Kd", "setting": "[1]", "result": "4 to 6", "unit": "nM"}, {"measurement": "Kd", "setting": "[2]", "result": "~4.66", "unit": "nM"}, {"measurement": "koff", "setting": "[2]", "result": 0.000435, "unit": "s⁻¹"}, {"measurement": "kon", "setting": "[2]", "result": 170000, "unit": "M⁻¹ s⁻¹"}, {"measurement": "Kd", "setting": "[3]", "result": "5.7 nM and 4.7 nM and 4.3 nM"}, {"measurement": "binding result", "setting": "[4]", "result": "binds"}]}
